Here are results for four substances from paper PMC10917064.

Assay [1] concerns the target mUb-K240 VASP (VASP^CCC-SSA K240C crosslinked by bismaleimidoethane to ubiquitin^(1-74, G75C)) (UniProt P0CG48). In words: mass photometry; 15 nM VASP, room temperature, Refeyn One; margin of error of each mass about 20-25%.
The target of assay [2] is mUb-K286 VASP (VASP^CCC-SSA K286C crosslinked by bismaleimidoethane to ubiquitin^(1-74, G75C)) (UniProt P0CG48). The description is as above.
For assay [3], the target named is mmUb-K240/K286 VASP (VASP^CCC-SSA K240C, K286C crosslinked by bismaleimidoethane to two ubiquitin^(1-74, G75C)) (UniProt P0CG48). The description is as above.
Assay [4] addresses chicken skeletal muscle actin (filaments, 10% Alexa Fluor 488 labeled) (chicken) (UniProt P68139). In words: single-molecule TIRF microscopy (dwell time); 1 nM TAMRA–VASP at the trailing barbed end of two-filament bundles; 1.5 µM actin (10% Alexa Fluor 488 labeled), 673 nM fascin, TIRF buffer, room temperature; 0.5 s/frame; one-phase decay fit of 1−cumulative frequency.
Assay [5] addresses unmodified VASP (TAMRA–VASP; cysteine-light VASP^CCC-SSA with an N-terminal GGG motif) (human). Nature of the assay: mass photometry; 15 nM VASP, room temperature, Refeyn One; margin of error of each mass about 20-25%.

“mUb-K240 VASP (VASP^CCC-SSA K240C crosslinked by bismaleimidoethane to ubiquitin^(1-74, G75C)) (from UniProt P0CG48 1-75) (complex)” returned a stoichiometry N in assay [1] of 4.
Consider “mUb-K286 VASP (VASP^CCC-SSA K286C crosslinked by bismaleimidoethane to ubiquitin^(1-74, G75C)) (from UniProt P0CG48 1-75) (complex)”, for which the stoichiometry N in assay [2] was determined as 4.
For the substance “mmUb-K240/K286 VASP (VASP^CCC-SSA K240C, K286C crosslinked by bismaleimidoethane to two ubiquitin^(1-74, G75C)) (from UniProt P0CG48 1-75) (complex)”, the stoichiometry N in assay [3] was determined as 4. This substance showed a lifetime τ1 at the barbed end in assay [4] of 1.14 s.
As for “unmodified VASP (TAMRA–VASP; cysteine-light VASP^CCC-SSA with an N-terminal GGG motif) (natural protein)”, the stoichiometry N in assay [5] was 4. In assay [4], this substance returned a lifetime τ1 at the barbed end of 1.17 s.

A word on the stoichiometry N: it is a count of units in the complex or per binding partner.
